Read-outs that look alike come from different tables or passages of the source.
Key:
[1] = cited from earlier work
[2] = SEC-MALS assay (protein stability analysis); format: physicochemical; conditions: for SEC-MALS HMW: high molecular weight fraction; for SEC-MALS Main Peak: main peak fraction; for SEC-MALS Tailing Peak: tailing peak fraction
Experimental: A SEC-MALS assay was performed to determine the primary state (main peak) and its molecular weight. The GLP-2 peptibody A has the amino acid sequence set forth in SEQ ID NO: 1. The GLP-2 peptibody B has the amino acid sequence set forth in SEQ ID NO: 4. The GLP-2 peptibody C has the amino acid sequence set forth in SEQ ID NO: 7. The GLP-2 peptibody D has the amino acid sequence set forth in SEQ ID NO: 10.

| Compound | half-life ([1]; SBS patients) [h] | half-life ([1]; healthy patients) | SEC-MALS HMW [2] [% HMW] | SEC-MALS Main Peak [2] [% Main Peak] | SEC-MALS Tailing Peak [2] [% Tailing Peak] |
| --- | --- | --- | --- | --- | --- |
| CC[C@H](C)[C@H](NC(=O)[C@H](Cc1ccccc1)NC(=O)[C@H](CC(=O)O)NC(=O)[C@H](CCCNC(=N)N)NC(=O)[C@H](C)NC(=O)[C@H](C)NC(=O)[C@H](CC(C)C)NC(=O)[C@H](CC(N)=O)NC(=O)[C@H](CC(=O)O)NC(=O)[C@H](CC(C)C)NC(=O)[C@@H](NC(=O)[C@@H](NC(=O)[C@H](CC(N)=O)NC(=O)[C@H](CCSC)NC(=O)[C@H](CCC(=O)O)NC(=O)[C@H](CC(=O)O)NC(=O)[C@H](CO)NC(=O)[C@H](Cc1ccccc1)NC(=O)[C@H](CO)NC(=O)CNC(=O)[C@H](CC(=O)O)NC(=O)CNC(=O)[C@@H](N)Cc1c[nH]cn1)[C@@H](C)O)[C@@H](C)CC)C(=O)N[C@@H](CC(N)=O)C(=O)N[C@@H](Cc1c[nH]c2ccccc12)C(=O)N[C@@H](CC(C)C)C(=O)N[C@H](C(=O)N[C@@H](CCC(N)=O)C(=O)N[C@H](C(=O)N[C@@H](CCCCN)C(=O)N[C@H](C(=O)N[C@H](C(=O)N[C@@H](CC(=O)O)C(=O)O)[C@@H](C)O)[C@@H](C)CC)[C@@H](C)O)[C@@H](C)CC [Teduglutide] | ~1.3 | approximately 2 hours |  |  |  |
| GLP-2 peptibody B: GLP-2[A2G]-linker APAPAPAPAPAPAPAPAPAP-IgG1(LALA) Fc fusion having the amino acid sequence of SEQ ID NO: 4 |  |  | 1.2 | 80.7 | 18.1 |
| GLP-2 peptibody C: GLP-2[A2G]-linker AEAAAKEAAAKEAAAKALEAEAAAKEAAAKEAAAKA-IgG1(LALA) Fc fusion having the amino acid sequence of SEQ ID NO: 7 |  |  |  | 82.6 | 17.4 |
| GLP-2 peptibody D: GLP-2[A2G] with C-terminal arginine-linker GGGGSGGGGSGGGGS-IgG1(LALA) Fc fusion having the amino acid sequence of SEQ ID NO: 10 |  |  | 1.4 | 86.8 | 11.8 |

Reference: patent US20210355187A1, “GLP-2 FUSION POLYPEPTIDES AND USES FOR TREATING AND PREVENTING GASTROINTESTINAL CONDITIONS” (SHIRE-NPS PHARMACEUTICALS, INC., priority 2018, published 2021)
